Results as given in US20230212319A1, “NOVEL ANTIGEN BINDING DOMAINS AND SYNTHETIC ANTIGEN RECEPTORS INCORPORATING THE SAME” (University of Southern California, priority 2020, published 2023).

Key:
Format in all cases: cell-based
[1] = test system: Nalm6 cells; assay: JNG assay, co-culture with Nalm6 cells; conditions: co-culture with Nalm6
Summary of the method: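 Jurkat NFAT-GFP reporter cells stably expressing lentivirally transduced SARs, drug-selected where possible, were co-cultured with target cells at E:T ≈1:2 for ~4–18 h. GFP measured by FACS; scored +/- to 5+ (~5–50% GFP+ cells) above parental reporter cells.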

[2] = test system: Raji-CD22-KO; assay: JNG NFAT-GFP assay, co-culture with Raji-CD22-KO cells
[3] = test system: U266 cells; assay: JNG NFAT-GFP induction on co-culture with U266
[4] = test system: RAJI cells; assay: JNG assay, co-culture with RAJI cells; conditions: JNG cells expressing construct, co-culture with Raji
Summary of the method: (§1)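 Read-out is NFAT-driven GFP measured by flow cytometry after ~4–18 h co-culture of SAR-expressing JNG cells with target cells (E:T about 1:2). SARs were introduced by lentiviral spinfection and selected with puromycin or blasticidin when possible; scores (+/- to 5+ ≈ 5–50% GFP+) are relative to parental JNG cells.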

[5] = test system: L363 cells; assay: JNG assay, co-culture with L363 cells; conditions: co-culture with L363
Summary of the method: as §1

[6] = test system: HepG2 cells

B1: 22146 (protein)
chain: MALPVTALLLPLALLLHAARPACEVQLLESGGGLIQPGGSLRLSCAASGFTFSSHAMTWVRQAPGKGLEWVSAISGSGDYTHYADSVKGRFTISRDNSKNTVYLQMNSLRAEDSAVYYCAKDEDGGSLLGHRGQGTLVTVSSGTGGGGSGGGGSGGGGSEFDIQMTQSPSSLSASVGDRVTITCRASQDISNYLNWYQQKPGKAVKLLIYYTSILHSGVPSRFSGSGSGTDYTLTISSLQPEDFATYFCQQGNTLPWTFGGGTKVEIKLEGQPKANPTVTLFPPSSEELQANKATLVCLISDFYPGAVTVAWKADGSPVKAGVETTKPSKQSNNKYAASSYLSLTPEQWKSHRSYSCQVTHEGSTVEKTVAPTECSGRADCGFTSESYQQGVLSATILYEILLGKATLYAVLVSALVLMAMVKRKDSRGRAKRSGSGATNFSLLKQAGDVEENPGPTSATMDWIWRILFLVGAATGAHSGPQVQLQESGGGLAQAGGSLRLSCAASGRTFSMGWFRQAPGKEREFVAAITYSGGSPYYASSVRGRFTISRDNAKNTVYLQMNSLKPEDTAVYYCAANPTYGSDWNAENWGQGTQVTVSSGSGGGGSGGGGSGGGGSFEVQLVESGGGLVKPGGSLKLSCAASGFAFSIYDMSWVRQAPGKGLEWVAYISSGGGTTYYPDTVKGRFTISRDNAKNTLYLQMSSLRAEDTAMYYCARHSGYGSSYGVLFAYWGQGTLVTVSSTRASTKGPSVFPLAPSSKSTSGGTAALGCLVKDYFPEPVTVSWNSGALTSGVHTFPAVLQSSGLYSLSSVVTVPSSSLGTQTYICNVNHKPSNTKVDKRVEPKSCIPEDTFFPSPESSCDVKLVEKSFETDTNLNFQNLSVIGFRILLLKVAGFNLLMTLRLWSSRAKRSGSGVKQTLNFDLLKLAGDVESNPGPSRGHMTEYKPTVRLATRDDVPRAVRTLAAAFADYPATRHTVDPDRHIERVTELQELFLTRVGLDIGKVWVADDGAAVAVWTTPESVEAGAVFAEIGPRMAELSGSRLAAQQQMEGLLAPHRPKEPAWFLATVGVSPDHQGKGLGSAVVLPGVEAAERAGVPAFLETSAPRNLPFYERLGFTVTADVEVPEGPRTWCMTRKPGA
NFAT-GFP ASSAY: Nalm6 [1]: +/- (refer to approximately 5%, 10%, 20%, 30%, 40% and 50% GFP positive cells) | NFAT-GFP ASSAY: Raji-CD22-KO [2]: 3+ (refer to approximately 5%, 10%, 20%, 30%, 40% and 50% GFP positive cells) | NFAT-GFP ASSAY: U266 [3]: 2+ (refer to approximately 5%, 10%, 20%, 30%, 40% and 50% GFP positive cells) | NFAT-GFP ASSAY: Raji [4]: 2+ (refer to approximately 5%, 10%, 20%, 30%, 40% and 50% GFP positive cells) | NFAT-GFP ASSAY: L363 [5]: + (refer to approximately 5%, 10%, 20%, 30%, 40% and 50% GFP positive cells)

B2: 22144 (protein)
chain: MALPVTALLLPLALLLHAARPMLPAPKNLVVSRITEDSARLSWTAPDAAFDSFPIRYIETLIWGEAIWLDVPGSERSYDLTGLKPGTEYAVVITGVKGGRFSSPLVASFTTGTGGGGSGGGGSGGGGSEFDIQMTQSPSSLSASVGDRVTITCRASQDISNYLNWYQQKPGKAVKLLIYYTSILHSGVPSRFSGSGSGTDYTLTISSLQPEDFATYFCQQGNTLPWTFGGGTKVEIKLEDLKNVFPPEVAVFEPSEAEISHTQKATLVCLATGFYPDHVELSWWVNGKEVHSGVCTDPQPLKEQPALNDSRYCLSSRLRVSATFWQNPRNHFRCQVQFYGLSENDEWTQDRAKPVTQIVSAEAWGRADCGFTSESYQQGVLSATILYEILLGKATLYAVLVSALVLMAMVKRKDSRGRAKRSGSGATNFSLLKQAGDVEENPGPTSMDWIWRILFLVGAATGAHSFEVQLVESGGGLVKPGGSLKLSCAASGFAFSIYDMSWVRQAPGKGLEWVAYISSGGGTTYYPDTVKGRFTISRDNAKNTLYLQMSSLRAEDTAMYYCARHSGYGSSYGVLFAYWGQGTLVTVSSTRIQNPDPAVYQLRDSKSSDKSVCLFTDFDSQTNVSQSKDSDVYITDKCVLDMRSMDFKSNSAVAWSNKSDFACANAFNNSIIPEDTFFPSPESSCDVKLVEKSFETDTNLNFQNLSVIGFRILLLKVAGFNLLMTLRLWSSRAKRSGSGVKQTLNFDLLKLAGDVESNPGPSRGHMTEYKPTVRLATRDDVPRAVRTLAAAFADYPATRHTVDPDRHIERVTELQELFLTRVGLDIGKVWVADDGAAVAVWTTPESVEAGAVFAEIGPRMAELSGSRLAAQQQMEGLLAPHRPKEPAWFLATVGVSPDHQGKGLGSAVVLPGVEAAERAGVPAFLETSAPRNLPFYERLGFTVTADVEVPEGPRTWCMTRKPGA
NFAT-GFP ASSAY: Nalm6 [1]: +/- (refer to approximately 5%, 10%, 20%, 30%, 40% and 50% GFP positive cells) | NFAT-GFP ASSAY: Raji-CD22-KO [2]: +/- (refer to approximately 5%, 10%, 20%, 30%, 40% and 50% GFP positive cells) | NFAT-GFP ASSAY: U266 [3]: 3+ (refer to approximately 5%, 10%, 20%, 30%, 40% and 50% GFP positive cells) | NFAT-GFP ASSAY: Raji [4]: + (refer to approximately 5%, 10%, 20%, 30%, 40% and 50% GFP positive cells) | NFAT-GFP ASSAY: L363 [5]: + (refer to approximately 5%, 10%, 20%, 30%, 40% and 50% GFP positive cells)

B3: 22257 (protein)
chain: MGPRLLFWALLCLLGTGPVEAGVTQSPTHLIKTRGQQATLRCSPISGHTSVYWYQQALGLGLQFLLWYDEGEERNRGNFPPRFSGRQFPNYSSELNVNALELEDSALYLCASSLGGPRGLAGLRGDEQFFGPGTRLTVLEGTGGGGSGGGEFDIQMTQSPSSLSASVGDRVTITCKASDHINNWLAWYQQKPGQAPKLLIYGATTLETGVPSRFSGSGSGTDYTLTISSLQPEDFATYYCQQSWNTPWTFGQGTKLEIKRLEGQPKANPTVTLFPPSSEELQANKATLVCLISDFYPGAVTVAWKADGSPVKAGVETTKPSKQSNNKYAASSYLSLTPEQWKSHRSYSCQVTHEGSTVEKTVAPTECSGRADCGFTSESYQQGVLSATILYEILLGKATLYAVLVSALVLMAMVKRKDSRGRAKRSGSGATNFSLLKQAGDVEENPGPTSATMDWIWRILFLVGAATGAHSGPQVQLQESGGGLAQAGGSLRLSCAASGRTFSMGWFRQAPGKEREFVAAITYSGGSPYYASSVRGRFTISRDNAKNTVYLQMNSLKPEDTAVYYCAANPTYGSDWNAENWGQGTQVTVSSGSGGGGSGGGGSGGGGSFEQVQLQQPGAELVKPGASVKMSCKASGYAFSSYWINWMKQKPGQGLEWIGQIYPGDGDTNYNGKFKGRATLTADTSSSTAYMQLSSLTSEDSAVYFCARSITTVVGCAMDYWGQGTSVTVSSTRASTKGPSVFPLAPSSKSTSGGTAALGCLVKDYFPEPVTVSWNSGALTSGVHTFPAVLQSSGLYSLSSVVTVPSSSLGTQTYICNVNHKPSNTKVDKRVEPKSCIPEDTFFPSPESSCDVKLVEKSFETDTNLNFQNLSVIGFRILLLKVAGFNLLMTLRLWSSRAKRSGSGVKQTLNFDLLKLAGDVESNPGPSRGHMTEYKPTVRLATRDDVPRAVRTLAAAFADYPATRHTVDPDRHIERVTELQELFLTRVGLDIGKVWVADDGAAVAVWTTPESVEAGAVFAEIGPRMAELSGSRLAAQQQMEGLLAPHRPKEPAWFLATVGVSPDHQGKGLGSAVVLPGVEAAERAGVPAFLETSAPRNLPFYERLGFTVTADVEVPEGPRTWCMTRKPGA
NFAT-GFP ASSAY: HepG2 [6]: RAJI (2+), HepG2 (-/^+)

B4: 22256 (protein)
chain: MGPRLLFWALLCLLGTGPVEAGVTQSPTHLIKTRGQQATLRCSPISGHTSVYWYQQALGLGLQFLLWYDEGEERNRGNFPPRFSGRQFPNYSSELNVNALELEDSALYLCASSLGGPRGLAGLRGDEQFFGPGTRLTVLEGTGGGGSGGGEFDIQMTQSPSSLSASVGDRVTITCKASDHINNWLAWYQQKPGQAPKLLIYGATTLETGVPSRFSGSGSGTDYTLTISSLQPEDFATYYCQQSWNTPWTFGQGTKLEIKRLEDLKNVFPPEVAVFEPSEAEISHTQKATLVCLATGFYPDHVELSWWVNGKEVHSGVCTDPQPLKEQPALNDSRYCLSSRLRVSATFWQNPRNHFRCQVQFYGLSENDEWTQDRAKPVTQIVSAEAWGRADCGFTSESYQQGVLSATILYEILLGKATLYAVLVSALVLMAMVKRKDSRGRAKRSGSGATNFSLLKQAGDVEENPGPTSATMDWIWRILFLVGAATGAHSGPEVQLVESGGGLVQAGGSLRLSCAASGRTFSMGWFRQAPGKEREFVAAITYSGGSPYYADSVKGRFTISRDNAKNTVYLQMNSLKPEDTAVYYCAANPTYGSDWNAENWGQGTQVTVSSGSGGGGSGGGGSGGGGSFEQVQLQQPGAELVKPGASVKMSCKASGYAFSSYWINWMKQKPGQGLEWIGQIYPGDGDTNYNGKFKGRATLTADTSSSTAYMQLSSLTSEDSAVYFCARSITTVVGCAMDYWGQGTSVTVSSTRIQNPDPAVYQLRDSKSSDKSVCLFTDFDSQTNVSQSKDSDVYITDKCVLDMRSMDFKSNSAVAWSNKSDFACANAFNNSIIPEDTFFPSPESSCDVKLVEKSFETDTNLNFQNLSVIGFRILLLKVAGFNLLMTLRLWSSRAKRSGSGVKQTLNFDLLKLAGDVESNPGPSRGHMTEYKPTVRLATRDDVPRAVRTLAAAFADYPATRHTVDPDRHIERVTELQELFLTRVGLDIGKVWVADDGAAVAVWTTPESVEAGAVFAEIGPRMAELSGSRLAAQQQMEGLLAPHRPKEPAWFLATVGVSPDHQGKGLGSAVVLPGVEAAERAGVPAFLETSAPRNLPFYERLGFTVTADVEVPEGPRTWCMTRKPGA
NFAT-GFP ASSAY: HepG2 [6]: RAJI (+/-), HepG2 (-/^+)
